Entries after “also recorded” stand apart in the source; their conditions may differ.
T1: FSTL1 (Homo sapiens, UniProt Q12841)
T1 sequence (Q12841 21-308): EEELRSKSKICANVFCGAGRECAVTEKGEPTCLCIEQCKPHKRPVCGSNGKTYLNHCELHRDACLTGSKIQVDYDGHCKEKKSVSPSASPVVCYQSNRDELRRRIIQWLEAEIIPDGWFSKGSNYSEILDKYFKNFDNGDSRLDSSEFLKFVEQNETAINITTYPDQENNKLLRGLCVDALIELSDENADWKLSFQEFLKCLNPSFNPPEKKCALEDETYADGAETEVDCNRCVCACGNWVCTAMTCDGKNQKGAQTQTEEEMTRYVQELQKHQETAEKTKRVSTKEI


Target: T1, FSTL1
Test: Inhibition of induction of MSCs, cancer-associated MSCs and M-MDSCs by FSTL1 in mouse bone marrow cells (Examples 13 to 15)
Format: cell-based
Design: purchased R&D Systems, Inc. 1694-FN-050
Procedure: The antibody clone (#6-55, #7, […], #13, or #22) was evaluated for its activity by the same testing method as in Example 13. #6-55 was set as a positive control for activity. […] Mouse bone marrow cells were supplemented with FSTL1 and the predetermined concentration of each antibody and cultured for 8 days. 5×10^4 cells/well were separated from each culture system and evaluated for the ability to differentiate into adipocytes using an adipocyte differentiation reagent included in “Mesenchymal Stem Cell Functional Identification Kit (R&D Systems, Inc., Cat. No. SCO10)”. For the evaluation method, the cells were supplemented with the adipocyte differentiation reagent and cultured for 8 days. Then, adipocytes per culture system were counted under a microscope for evaluation. In the graph, none is depicted in the leftmost bar, and the control antibody is depicted in the second bar from the left followed by the anti-FSLT1 antibody clones. Adipocytes were not confirmed for any of the anti-FSLT1 antibodies. It is understood that the differentiation induction of MSCs serving as the original source is inhibited.
Mouse bone marrow cells (bone marrow cells prepared in the same way as in Example 4) were supplemented with 20 ng/mL (final concentration) of FSTL1 and 20.0, 10.0, 5.0, or 2.5 μg/ml (final concentration) of the rat anti-FSTL1 antibody or #6-55. Also, mouse bone marrow cells were supplemented with 20.0 μg/ml (final concentration) each of their respective control antibodies, a rat IgG2b isotype control (R&D Systems, Inc., Cat. No. MAB0061, clone 141945) and an anti-DNP antibody. The cells were cultured for 8 days, and the inhibitory activity of each antibody against the induction of MSCs, cancer-associated MSCs, and M-MDSCs by FSTL1 was evaluated in the same way as in Example 13 (FIG. 40A). […] The inhibition of regulatory T cells shown in Patent Literature 1 (WO2009/028411) is presumably a consequence mediated by the inhibition of MSC induction. […]

[1] = Example 14, #6-55 as positive control

Row | Molecule | inhibitory activity against the induction of MSCs, cancer-associated MSCs, and M-MDSCs by FSTL1 [1] | inhibitory activity against the induction of MSCs, cancer-associated MSCs, and M-MDSCs by FSTL1 (Example 15, FSTL1 20 ng/mL, antibody 20.0, 10.0, 5.0, or 2.5 μg/ml, dose dependence not confirmed)
1 | #13: chicken-mouse chimeric anti-FSTL1 antibody clone; variable regions SEQ ID NO: 815 (light), 817 (heavy) (antibody, V domains shown, mouse constant regions) VH: AVTLDESGGGLQTPGGGLSLVCKASGFTFSSVTMQWVRQAPGKGLEWVASICSGSSTYYGPAVKGRATISRDNGQNTVRLQLNNLRAEDTATYYCAKIVGRGRWSCTSAAYNIDAWGHGTEVIVSS VL: ASTQPSSVSANPGETVKITCSGGGNNYGWYQQKSPGSAPVTVIYNNNNRPSNIPSRFSGSKSGSTNTLTITGVQAEDEAVYYCGSYDSSSDSGIFGAGTTLTVL | inhibitory activity equivalent to or higher than that of the positive control | 
2 | #6-55: chicken-mouse chimeric anti-FSTL1 antibody clone; variable regions SEQ ID NO: 783 (light), 785 (heavy) (antibody, V domains shown, mouse constant regions) VH: AVTLDESGGGLQTPGGALSLVCKGSGFTFTSVTMQWVRQAPGKGLEWVASVCSGSSTYYAPAVKGRATISRDNGQSTVRLQLSNLRPEDTGTYYCAKIAGRARWSCTSAAYNIDAWGHGTEVIVSS VL: ASTQPSSVSAIPGETVKITCSGGGNNYGWYQQRSPGSAPVTVIYYNDNRPSNIPSRFSGSTSGSTSTLTITGVQADDEAIYYCGSWDSNTDSGIFGAGTTLTVL |  | at the same level; also recorded: slightly superior
3 | #33: chicken-mouse chimeric anti-FSTL1 antibody clone; variable regions SEQ ID NO: 823 (light), 825 (heavy) (antibody, V domains shown, mouse constant regions) VH: AVTLDESGGGLQTPGGGLSLVCKASGFTFSSFNMNWVRQAPGKGLEYVAEISGTGSSTYYGSAVKGRATISRDNGQSTVRLQLNNLRAEDTATYFCARGDGAYSIDAWGHGTEVIVSS VL: ASTQPSSVSANPGETVEITCSGDSSYYGWFQQKSPGSAPVTVIYDNTNRPSDIPSRFSGSKSGSTATLTITGVRAEDEAVYYCGGYDSSTYDGIFGAGTTLTVL | inhibitory activity equivalent to or higher than that of the positive control | 
